Results published in publication PMC5660093, “Structure of SgK223 pseudokinase reveals novel mechanisms of homotypic and heterotypic association” (Nature Communications, 2017).
Positions count from the first letter of the chain named.

B1: SgK269-αN1-PsK-Cter (WT) (domain or fragment, human, UniProt Q9H792 1267-1746, looked up)
chain: GIQKPQRQALYRGLENREEVVGKIRSLHTDALKKLAVKCEDLFMAGQKDQLRFGVDSWSDFRLTSDKPCCEAGDAVYYTASYAKDPLNNYAVKICKSKAKESQQYYHSLAVRQSLAVHFNIQQDCGHFLAEVPNRLLPWEDPDDPEKDEDDMEETEEDAKGETDGKNPKPCSEAASSQKENQGVMSKKQRSHVVVITREVPCLTVADFVRDSLAQHGKSPDLYERQVCLLLLQLCSGLEHLKPYHVTHCDLRLENLLLVHYQPGGTAQGFGPAEPSPTSSYPTRLIVSNFSQAKQKSHLVDPEILRDQSRLAPEIITATQYKKCDEFQTGILIYEMLHLPNPFDENPELKEREYTRADLPRIPFRSPYSRGLQQLASCLLNPNPSERILISDAKGILQCLLWGPREDLFQTFTACPSLVQRNTLLQNWLDIKRTLLMIKFAEKSLDREGGISLEDWLCAQYLAFATTDSLSCIVKILQHR
notes: SgK269 (PEAK1), human, residues 1267-1746: αN1 helix, pseudokinase domain and C-terminal helices; also called SgK269-WT (αN1-PsK-Cter); SgK269-WT; source: E. coli C41(DE3), purified (Ni-NTA, SEC)
B2: His tag cleaved SgK269-αN1-PsK-Cter F1609A (domain or fragment, human, UniProt Q9H792 1267-1746, looked up)
chain: B1 chain with F343A
notes: SgK269 (PEAK1), human, residues 1267-1746; also called SgK269-αN1-PsK-Cter Phe1609Ala; source: E. coli C41(DE3), purified (Ni-NTA, SEC); not shown: His tag, N-terminal, cleaved
B3: SgK223-αN1-PsK-Cter F974A (domain or fragment, human, UniProt Q86YV5 932-1406, looked up)
chain: GSTQLQLHGLLSNISSKEGTYAKLGGLYTQSLARLVAKCEDLAMGGQKKELHFNENNWSLFKLTCNKPCCDSGDAIYYCATCSEDPGSTYAVKICKAPEPKTVSYCSPSVPVHFNIQQDCGHFVASVPSSMLSSPDAPKDPVPALPTHPPAQEQDCVVVITREVPHQTASDFVRDSAASHQAEPEAYERRVCFLLLQLCNGLEHLKEHGIIHRDLCLENLLLVHCTLQAGPGPAPAPAPAPAPAAAAPPCSSAAPPAGGTLSPAAGPASPEGPREKQLPRLIISNFLKAKQKPGGTPNLQQKKSQARLAPEIVSASQYRKFDEFQTGILIYELLHQPNPFEVRAQLRERDYRQEDLPPLPALSLYSPGLQQLAHLLLEADPIKRIRIGEAKRVLQCLLWGPRRELVQQPGTSEEALCGTLHNWIDMKRALMMMKFAEKAVDRRRGVELEDWLCCQYLASAEPGALLQSLKLLQLL
notes: SgK223 (Pragmin), human, residues 932-1406; source: E. coli C41(DE3), purified (Ni-NTA, SEC)
B4: SgK223-αN1-PsK-Cter W1354A (domain or fragment, human, UniProt Q86YV5 932-1406, looked up)
chain: B3 chain with A43F, W423A
notes: SgK223 (Pragmin), human, residues 932-1406; also called alanine mutation of Trp1354; source: E. coli C41(DE3), purified (Ni-NTA, SEC)
B5: SgK223-αN1-PsK-Cter (WT) (domain or fragment, human, UniProt Q86YV5 932-1406, looked up)
chain: B3 chain with A43F
notes: SgK223 (Pragmin), human, residues 932-1406: αN1 helix, pseudokinase domain and C-terminal helices; Modified pCOLD IV vector with an N-terminal His TEV cleavage tag; Monomer MW printed as 54 kDa; A seleno-methionine form was also crystallised; also called WT-SgK223-αN1-PsK-Cter; SgK223-WT (αN1-PsK-Cter); source: E. coli C41(DE3), purified (Ni-NTA, SEC)
B6: SgK223-αN1-PsK-Cter Y1282A (domain or fragment, human, UniProt Q86YV5 932-1406, looked up)
chain: B3 chain with A43F, Y351A
notes: as for B3
B7: SgK223-αN1-PsK-Cter F1271A (domain or fragment, human, UniProt Q86YV5 932-1406, looked up)
chain: B3 chain with A43F, F340A
notes: SgK223 (Pragmin), human, residues 932-1406; also called SgK223-αN1-PsK-Cter Phe1271Ala; His-SgK223-αN1-PsK-Cter; source: E. coli C41(DE3), purified (Ni-NTA, SEC); not shown: His tag, N-terminal, kept
B8: SgK223 αN1-PsK-Cter I1243A (domain or fragment, human, UniProt Q86YV5 932-1406, looked up)
chain: B3 chain with A43F, I312A
notes: as for B3

What was measured:
[1] = molecular target: the molecule itself; experiment: AUC; sedimentation velocity, WT and oligomer-interface mutants each at 20 μM; 20 mM Tris-HCl, 150 mM NaCl, pH 8.0, 20 °C
[2] = molecular target: the molecule itself; experiment: SEC; peaks from the Mono Q column on Superdex 200 Increase 10/300 GL; 20 mM Tris pH 8.5, 200 mM NaCl, 1 mM TCEP
[3] = molecular target: the molecule itself; experiment: AUC; sedimentation velocity, WT and mutants each at 3.0 μM; 20 mM Tris-HCl, 150 mM NaCl, pH 8.0, 20 °C
[4] = molecular target: the molecule itself; experiment: AUC; sedimentation velocity at 0.6, 1.2 and 2.3 μM; 20 mM Tris-HCl, 150 mM NaCl, pH 8.0, 20 °C; dimer to monomers
[5] = molecular target: B1; experiment: SEC; SgK223 and SgK269 proteins mixed equimolar at 29.06 μM, 15 min on ice; Superdex 200 Increase 10/300 GL; 20 mM Tris pH 8.5, 200 mM NaCl, 5% glycerol, 1 mM TCEP; preformed homodimers mixed; details: both partners purified
[6] = molecular target: B2; experiment: anion exchange chromatography (Mono Q); the two αG mutants mixed equimolar at 20 μM, overnight on ice, diluted five times, Mono Q 5/50 GL, linear NaCl gradient, 20 mM Tris pH 8.5; peaks analysed by SDS-PAGE; details: both partners purified
[7] = molecular target: the molecule itself; experiment: SAXS; inline gel filtration (Superdex 200 5/150); 20 mM Tris pH 8.5, 200 mM NaCl, 1 mM TCEP, 5% glycerol, 12 °C; WT injected at 2.2 mg/ml, I1243A at 3.5 mg/ml

Binder: B1
binding result [1]: binds

Binder: B2
stoichiometry N [2]: 2

Binder: B3
binding result [3]: binds

Binder: B4
binding result [3]: binds

Binder: B5
stoichiometry N [4]: 2
binding result [5]: binds

Binder: B6
stoichiometry N [1]: 2

Binder: B7
stoichiometry N [1]: 2
binding result [6]: binds

Binder: B8
stoichiometry N [7]: 2
